The numbers were not newly measured in PMC8588233, which cites them from elsewhere.

Where two headings read alike, the source gives them in different places.

For orientation: Kd means the constant that tells how readily two partners part at equilibrium.

For data set [1], the target named is HER2 (Homo sapiens) (UniProt P04626).
Data set [2] has the same target. This is another data set of the same source.
For data set [3] the target is unchanged. This is another data set of the same source.

As to KCCYSL peptide, the Kd with HER2 (Homo sapiens) [1] is 0.295 µM.
For AHNP, in the data set with HER2 (Homo sapiens) [2], the Kd is 0.395 µM.
For AHNP (111In-DTPA-peptide-PEG), in the data set with HER2 (Homo sapiens) [3], the Kd is 0.3 µM.
